The values below come from publication PMC8609364, “A Selective Tether Recruits Activated Response Regulator CheB to Its Chemoreceptor Substrate” (mBio, 2021).

Experiment [1] has as its target unphosphorylated CheB. Conditions: isothermal titration calorimetry, free pentapeptide, ref [21], read-out: equilibrium dissociation constant; cited from earlier work. The procedure:
We measured binding of the low-activity, unphosphorylated form of CheB to the NWETF pentapeptide tethered to the sensor surface via a linker or in its native position at the carboxyl terminus of Tar4E or Tar4Q ([23]). Equilibrium dissociation constants were essentially the same for all conditions, 190 ± 85 μM for pentapeptide alone, and 230 ± 70 and 160 ± 30 for the pentapeptide on Tar4E or Tar4Q, respectively (Table 1). Within the error of the measurements, these values corresponded to those previously determined for free pentapeptide binding to unphosphorylated CheB by isothermal titration c ...
For orientation: In ITC the heat of successive injections is recorded.

For experiment [2], the target named is CheB. Nature of the experiment: Binding of CheB to NWETF pentapeptide tethered to the sensor surface via a linker (biolayer interferometry). Also noted: species or system E. coli. As to conditions: BLI, low-activity, unphosphorylated CheB, read-out: Equilibrium dissociation constant, pentapeptide alone. The procedure: We measured binding of the low-activity, unphosphorylated form of CheB to the NWETF pentapeptide tethered to the sensor surface via a linker or in its native position at the carboxyl terminus of Tar4E or Tar4Q ([23]). Equilibrium dissociation constants were essentially the same for all conditions, 190 ± 85 μM for pentapeptide alone, and 230 ± 70 and 160 ± 30 for the pentapeptide on Tar4E or Tar4Q, respectively (Table 1).
Kinetics of CheB association and dissociation with Nanodisc-embedded Tar biotinylated at L378C were determined using biolayer interferometry ([22], [23]) as measured by a BLItz instrument (ForteBio, Menlo Park, CA, USA) and described in reference. Representative time course experiments are shown in Fig. S1 in the supplemental material. Measurements for CheB-P* and CheB-P*-I were in 50 mM Tris-HCl (pH 7.5), 10% (wt/vol) glycerol, 5 mM MgCl2, 50 mM KCl, and 2% (wt/vol) bovine serum albumin (BSA). Measurements for CheB and CheBc were in the same solution plus 2 mM dithiothreitol (DTT).
Using BLItz software, response curves were fit globally to a 1:1 binding model to yield apparent association rate constants (kon) and dissociation rate constants (koff). […]
A general note: In BLI a coated tip is dipped into the sample, and binding shifts an interference pattern.

Experiment [3] deals with unphosphorylated CheB. Conditions: equilibrium dialysis, free pentapeptide, ref [21], read-out: equilibrium dissociation constant; cited from earlier work. For orientation: In equilibrium dialysis only unbound substance equilibrates across the membrane.
Experiment [4] has as its target CheB. As to conditions: low-activity, unphosphorylated CheB from E. coli; ref [21]; read-out: dissociation constants; cited from earlier work. The source says:
(§1) CheB is a two-domain protein, with an amino-terminal response regulator domain attached by a linker sequence to a carboxyl-terminal catalytic domain ([17]) (Fig. 1B). Phosphorylation of the response regulator domain by the chemotaxis histidine kinase creates a high-activity form of the methylesterase ([6]), shifting interaction between the two domains to an “open” conformation that relieves occlusion of the active site by the regulatory amino-terminal domain ([18], [19]). The enzyme binds its substrate chemoreceptor side chains with the surfaces surrounding its active site ([20]). In contrast, ...

The subject of experiment [5] is CheB. As to conditions: position 132; ref [11]; cited from earlier work.
The target of experiment [6] is Tar4Q L378C, E. coli aspartate chemoreceptor Tar, all-glutaminyl form with carboxyl-terminal pentapeptide, homodimer in Nanodiscs (E. coli) (UniProt P07017). The experiment in a line: BLI; BLItz; biotinylated Tar homodimers in Nanodiscs held on an avidin sensor tip, CheB-P* or CheB-P*-I in solution; 50 mM Tris-HCl pH 7.5, 10% glycerol, 5 mM MgCl2, 50 mM KCl, 2% BSA, no DTT; global fit, apparent rate constants, KD calculated from kon and koff.

For experiment [7], the target named is Tar4E L378C, E. coli aspartate chemoreceptor Tar, all-glutamyl form with carboxyl-terminal pentapeptide, homodimer in Nanodiscs (E. coli) (UniProt P07017). The description is as above.
Experiment [8] has as its target Tar4EΔpp-6H L378C, E. coli Tar lacking the carboxyl-terminal pentapeptide, all-glutamyl form, homodimer in Nanodiscs (E. coli) (UniProt P07017). The description is as above.
Experiment [9] deals with Tar4QΔpp-6H L378C, E. coli Tar lacking the carboxyl-terminal pentapeptide, all-glutaminyl form, homodimer in Nanodiscs (E. coli) (UniProt P07017). The description is as above.
Experiment [10] relates to CheB binding to pentapeptide. Also on record: method as in PMID 11435446. As to conditions: ref [11]; cited from earlier work.
The conditions of experiment [11]: low-activity, unphosphorylated CheB; ref [16]; read-out: dissociation constant; cited from earlier work.
Source text: as §1

The target in experiment [12] is T1, methylesterase/deamidase CheB from E. coli, low-activity, unphosphorylated form (E. coli, UniProt P07330 1-349).
T1 construct: CheB methylesterase/deamidase of E. coli, unphosphorylated, from plasmid pCW/cheB; measured with 2 mM DTT in the buffer; also called low-activity CheB; unmodified CheB; source: E. coli K-12 RP3098 with pCW/cheB, purified
T1 sequence (looked up): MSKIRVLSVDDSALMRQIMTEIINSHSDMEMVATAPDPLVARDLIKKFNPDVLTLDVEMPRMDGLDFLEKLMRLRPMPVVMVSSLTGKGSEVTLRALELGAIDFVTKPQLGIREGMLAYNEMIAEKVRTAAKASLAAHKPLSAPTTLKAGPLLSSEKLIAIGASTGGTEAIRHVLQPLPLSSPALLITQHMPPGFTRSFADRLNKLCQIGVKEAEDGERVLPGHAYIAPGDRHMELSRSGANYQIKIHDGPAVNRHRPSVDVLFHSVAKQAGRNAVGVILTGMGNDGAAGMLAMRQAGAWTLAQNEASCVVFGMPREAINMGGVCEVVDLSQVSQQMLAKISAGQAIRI
Nature of the experiment: BLI; BLItz; NWETF pentapeptide tethered to the sensor surface via a linker, CheB in solution; apparent rate constants, KD calculated from kon and koff. As to conditions: both partners purified.

Read-outs that look alike come from different tables or passages of the source. Ends that are not written are not given here.

Turning to NWETF [NWETF], the Kd on unphosphorylated CheB [1] is 160 µM; at CheB [2] it was 190 ± 85 µM; at unphosphorylated CheB [3] it was 130 µM; on CheB [4], 130 to 160 µM. The “protection of intact CheB from limited proteolysis” value in the experiment with CheB [5] is recorded as “protected intact CheB from limited proteolysis at position 132”.
As to “CheB-P*-I, enzymatically inactive phosphorylation mimic, Salmonella CheB D56C/S164A/C207S/C309S modified with thiophosphate (from UniProt P04042 1-349) (enzyme)”, the fold reduction of KA against CheB-P* in experiment [6] and in experiment [7] was 2.5 fold each time.
With “CheB-P*, phosphorylation mimic of Salmonella CheB D56C/C207S/C309S modified with thiophosphate (from UniProt P04042 1-349) (enzyme)”, the Kd in experiment [6] was 13 µM; in experiment [7] it was 13 µM; in experiment [8] it was 200 µM; in experiment [9], 200 µM. Also, the dwell time (1/koff) in experiment [6] and in experiment [7] was 3 s throughout.
As to “peptide from CheB residues 130 through 140 (AAKASLAAHKP; UniProt P07330 130-140, looked up, fragment)”, in [10], the “reduction of binding of intact enzyme to pentapeptide” value is “reduced binding of intact enzyme to pentapeptide”.

B1: CheB from Pseudomonas aeruginosa (protein, UniProt O87125 1-368, looked up)
Protein-glutamate …: MAVKVLVVDDSGFFRRRVSEILSADGQIQVVGTGTNGREAIEQALALRPDVITMDYEMPLMDGITAVRNIMQRCPTPVLMFSSLTHEGARVTLDALDAGAVDYLPKNFEDISRNPDKVRQLLCEKVLTIARSNRRSISLPPLPSATSSSHAPASSSSVGASARVGAGASPAPASTSAAPKRKAYRLVAIGTSTGGPVALQRVLTQLPANFPAPLVLIQHMPAAFTKAFAERLDKLCRINVKEAEDGDILRPGLALLAPGGKQMMVDGRGTVRILPGDERLNYKPCVDVTFGSAAKAYNDKVLAVVLTGMGADGREGARLLKQGGSQVWAQDEASCVIYGMPMAVVKANLADAVYGLDDIGRHLVEACQ
With B1, the Kd in experiment [11] was roughly 90 µM.

B2: NWETF pentapeptide tethered to the sensor surface via a linker (peptide)
peptide: NWETF
modifications: also: tethered to sensor surface via a linker (not described)
notes: carboxyl-terminal pentapeptide of the E. coli chemoreceptor Tar; also called pentapeptide alone
B2: the Kd in experiment [12] was 190 µM.
